Source: patent US6051373, “Methods for screening for inhibitors of the transcription-enhancing activity of the X protein of hepatitis B virus” (Scriptgen Pharmaceuticals, Inc.)

Experiments:
CREB (GST fusion) = CREB (GST fusion) (UniProt P16220-1 P16220-1:23-341); assay: EMSA; low binding without pX, greatly increased by 100 ng pX; conditions: tags: GST (pGEX-2T); chain copies: 2; label: 32P
ATF-2 (GST fusion) = target: T1, ATF-2 (GST fusion) (UniProt P15336 P15336:144-505); assay: EMSA; low binding without pX, greatly increased by pX; conditions: tags: GST (pGEX-2T); chain copies: 2; label: 32P
T1 sequence: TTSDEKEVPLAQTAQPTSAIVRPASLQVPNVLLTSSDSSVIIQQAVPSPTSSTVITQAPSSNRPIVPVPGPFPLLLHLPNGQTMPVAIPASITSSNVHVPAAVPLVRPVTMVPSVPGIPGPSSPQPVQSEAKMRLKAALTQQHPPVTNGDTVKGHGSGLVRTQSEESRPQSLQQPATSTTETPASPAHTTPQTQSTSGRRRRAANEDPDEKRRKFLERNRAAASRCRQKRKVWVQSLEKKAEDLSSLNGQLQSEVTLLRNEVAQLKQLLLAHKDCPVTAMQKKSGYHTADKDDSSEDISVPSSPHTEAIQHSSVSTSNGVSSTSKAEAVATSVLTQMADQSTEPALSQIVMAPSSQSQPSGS

pX = pX (Hepatitis B virus, UniProt P03165 P03165:1-154); assay: EMSA; no detectable interaction of pX with DNA without transcription factor; conditions: tags: His (pRSET-C); label: 32P
Chain of pX (P03165 whole entry, the tested form may be a part, one chain of several): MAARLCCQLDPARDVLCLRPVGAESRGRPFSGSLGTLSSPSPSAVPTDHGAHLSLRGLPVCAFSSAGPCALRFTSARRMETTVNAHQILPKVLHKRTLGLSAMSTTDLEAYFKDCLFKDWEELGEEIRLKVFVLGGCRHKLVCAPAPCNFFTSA

ATF-1 (GST fusion) = target: T2, ATF-1 (GST fusion) (UniProt P18846 P18846:57-271); assay: EMSA; low binding without pX, greatly increased by pX; TFIIB or E. coli extract no effect; conditions: tags: GST (pGEX-2T); chain copies: 2; label: 32P
T2 sequence: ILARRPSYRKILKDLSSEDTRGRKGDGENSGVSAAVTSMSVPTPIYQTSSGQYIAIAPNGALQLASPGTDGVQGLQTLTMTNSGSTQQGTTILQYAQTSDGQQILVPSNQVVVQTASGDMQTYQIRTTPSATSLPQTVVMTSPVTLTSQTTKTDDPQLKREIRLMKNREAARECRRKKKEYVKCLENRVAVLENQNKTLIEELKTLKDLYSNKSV

GCN4 minimal bZIP = GCN4 minimal bZIP (Saccharomyces cerevisiae, UniProt P03069 P03069:228-281); assay: EMSA; enhanced by pX; conditions: protein: synthetic; tags: synthetic peptide per text; chain copies: 2; label: 32P
Chain of GCN4 minimal bZIP (P03069 228-281, one chain of several): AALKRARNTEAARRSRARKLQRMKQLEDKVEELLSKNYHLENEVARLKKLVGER

ZTA minimal bZIP = ZTA minimal bZIP (Epstein-Barr virus, UniProt P03206 P03206:175-229); assay: EMSA; stimulated by pX; conditions: chain copies: 2; label: 32P
Chain of ZTA minimal bZIP (P03206 175-229, one chain of several): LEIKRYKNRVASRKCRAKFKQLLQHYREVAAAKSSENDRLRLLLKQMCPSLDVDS

[1] = target: T3, BR-CC (GCN4 basic region with idealized leucine zipper) (Saccharomyces cerevisiae); assay: EMSA; stimulated by pX; conditions: protein: synthetic; tags: synthetic peptide; chain copies: 2; label: 32P
T3 chain: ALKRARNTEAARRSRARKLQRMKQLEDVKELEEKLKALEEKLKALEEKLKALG

Chain of CREB (GST fusion) (P16220 other isoform, or with tags, fused parts or gaps): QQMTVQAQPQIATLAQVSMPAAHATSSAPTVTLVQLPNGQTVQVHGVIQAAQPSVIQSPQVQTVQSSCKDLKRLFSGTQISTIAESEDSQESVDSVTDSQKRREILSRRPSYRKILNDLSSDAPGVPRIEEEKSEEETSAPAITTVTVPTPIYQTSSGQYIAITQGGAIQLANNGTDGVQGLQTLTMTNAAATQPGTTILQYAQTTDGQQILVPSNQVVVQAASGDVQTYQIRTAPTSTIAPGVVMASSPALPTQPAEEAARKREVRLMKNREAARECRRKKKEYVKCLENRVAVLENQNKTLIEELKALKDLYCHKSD

Row | Binder | binding result (CREB (GST fusion)) | binding result (ATF-2 (GST fusion)) | binding result (pX) | binding result (ATF-1 (GST fusion)) | binding result (GCN4 minimal bZIP) | binding result (ZTA minimal bZIP) | binding result [1]
1 | CRE core oligoduplex (dsDNA) DNA 1: TCCTAAGTGACGTCAGTGGAA DNA 2: TTCCACTGACGTCACTTAGGA | binds | binds | no binding | binds | – | – | –
2 | collagenase TRE oligoduplex (dsDNA) DNA 1: AGCTTTGACTCATCCCGGA DNA 2: TCCGGGATGAGTCAAAGCT | – | – | – | – | binds | binds | binds
